The results in this text go back to the nanobody polyreactivity screen of Harvey et al. (2022).

A short description of this data set: yeast display, Sf9 membrane polyspecificity reagent, FACS + sequencing; frameworks hold sequencing errors. A digest of the protocol:
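Sorting gates, low and high (top ~1%), were placed on anti-HA fluorescence to track expression and on streptavidin fluorescence to track reagent binding. A clone's polyreactivity label is taken from the gate it came out of. The reagent was 10% biotinylated, detergent-solubilized Sf9 membrane, applied for 1 hour at 4 °C to galactose-induced yeast display cells.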
On to “QVQLVESGGGLVQAGGSLRLSCAASGGIFNRYAMGWYRPAPGKERELVAGITRSGGSTSYADSVKGRFTISRDNAKNTVYLQMNSLKPEDTAVYYCNKVAYYASSSYYRFGAYGYWGQGTQVTVSS”, for which the “polyreactivity (PSR sort gate)” value is “high polyreactivity”.

In the case of “QVQLVESGGGLVQAGGSLRLSCAASGGIFPHYVMGWYRQAPGKERELVAAITWSGGRTYYADSVKGRFTISRDNAKNTVYLQMNSMKPEDTAVYYCAADPFYLTKSGGWGDYWGQGTQVTVSS”, the “polyreactivity (PSR sort gate)” value was “low polyreactivity”.

As to “QVQLVESGGGLVQAGGSLRLSCAASGGIFPKNAMGWYRQAPGKERELVAAINWSGGTTNYADSVKGRFTISRDNAKNTVYLQMNSLKPEDTAVYYCAKQGLWIFVVVEMDYWGQGTQVNVSS”, the “polyreactivity (PSR sort gate)” value was “low polyreactivity”.

As to “QVQLVESGGGLVQAGGSLRLSCAASGGIFPQYAMGWYRQAPGKERQLVAAISRRGGRTYYADSVKGRFTISRDNAKNTDYLQMNSLKPEDTAVYYCNAGGSSGYDYWGQGTQVTVSS”, the “polyreactivity (PSR sort gate)” value is on record as “high polyreactivity”.

Consider “QVQLVESGGGLVQAGGSLRLSCAASGGIFPYYAMGWYRQAPGKERELVADISSGGSTYYADSVKGRFTISRDNAKNTVYLQMNSLKPEDTAVYYCAADAGQYFTYSGDDNHDYWGQGTQVTVSS”, for which the “polyreactivity (PSR sort gate)” value is “low polyreactivity”.

With “QVQLVESGGGLVQAGGSLRLSCAASGGIFRHNAMGWYRQAPGKERELVAAISRSGGNTYYADSVKGRFTISRDNAKNTVYLQMNSLKPEDTAVYYCNKIEYDSWADHVYWGQGTQVTVSS”, the “polyreactivity (PSR sort gate)” value is on record as “low polyreactivity”.

With “QVQLVESGGGLVQAGGSLRLSCAASGGIFRYAMGWYRQAPGKEREFVAAITTRGGSTYYADSVKARFTISRDNAKNTVYLQMNSLKPEDTAVYYCAARRYSGRNKYDYWGQGTQLTVSS”, the “polyreactivity (PSR sort gate)” value is given as “high polyreactivity”.

Turning to “QVQLVESGGGLVQAGGSLRLSCAASGGIFRYYALGWYRPAPGKERELVAASSRSGDSTYYADSVKGRFTISRDNAKNTVYLQMNSLKPEDTAVYYCAKDNDDVHLVHLDYNSDRYGYWGPGTQVTVSS”, the “polyreactivity (PSR sort gate)” value is listed as “high polyreactivity”.

As to “QVQLVESGGGLVQAGGSLRLSCAASGGIFRYYAMGWYRQAPGKERELVATITSGSITNYADSVKGRFTISRDNAKNTVYLQMNSLKPEDTAVYYCAALGAFPSLEFDYWGQGTQVTVSS”, the “polyreactivity (PSR sort gate)” value was “low polyreactivity”.

Consider “QVQLVESGGGLVQAGGSLRLSCAASGGIFSGNDMGWYRQAPGKERELVATITYSGGTTYYADSVKGRFTISRDNAKNTVYLQMNSLKPEDTAVYYCAADEYGPHTFSPEYDSWGQGTQVTVSS”, for which the “polyreactivity (PSR sort gate)” value is reported as “low polyreactivity”.

On to “QVQLVESGGGLVQAGGSLRLSCAASGGIFSGYAMGWYRQAPGKARELVAAISRRGTRTYYADSVKGRFTISRDNAKNTVDLQKNSLTPEDTAVYYCNAELDSLGTYDYWGQGTQVTVSS”, for which the “polyreactivity (PSR sort gate)” value is “high polyreactivity”.

For the sequence “QVQLVESGGGLVQAGGSLRLSCAASGGIFSPNAMGWYRQAPGKERELVAAISSNGGSTNYADSVKGRFTISRDHAKNTVYLQMNSLKPEDTAVYYCAGLQKRRSYWRPFYWGQGTQVTVSS”, the “polyreactivity (PSR sort gate)” value is “low polyreactivity”.

Turning to “QVQLVESGGGLVQAGGSLRLSCAASGGIFSPNAMGWYRQAPGKERELVAAISSNGGSTNYADSVKGRFTISRDNAKNTVYLQMNSLKPEDTAVFYCAGLQLRRSYRRPFYWGQGTQVTVSS”, the “polyreactivity (PSR sort gate)” value was “low polyreactivity”.

“QVQLVESGGGLVQAGGSLRLSCAASGGIFSQYAMGWYRQAPGKERELVAAINSGVGTNYADSVKGRFTISRDNAKNTVFLQMNSLKPEDTAVYYCAATDDRLWTFDVASYRNDYWGQGTQVTVSS”: the “polyreactivity (PSR sort gate)” value is on record as “low polyreactivity”.

In the case of “QVQLVESGGGLVQAGGSLRLSCAASGGIFSVYAMGWYRQPPGKERELVASITVSGGSTSYADSVKGRFTISRDTAKNTVYLQMNSLKPEDTAVYYCNTDFGQAHTLSWYEDMDYWGQGTQVTVSS”, the “polyreactivity (PSR sort gate)” value is “low polyreactivity”.

For “QVQLVESGGGLVQAGGSLRLSCAASGGIFSYNALGWYRQAPGKERELVAAISYSSTRTYYADSVKGRFTISRDNAKKTVYLQMNSLKREDTAVYYCAARLSRTRHTSDYWGQGTQVTVSS”, the “polyreactivity (PSR sort gate)” value is on record as “high polyreactivity”.

Consider “QVQLVESGGGLVQAGGSLRLSCAASGGIFTNNAMGWYRQAPGKERELVAAITGSGASTYYADSVKGRFTISRDNAKNTVYLQMNSLKPEDTAVYYCAALSKYYAPLSRYDYWGQGTQVTVSS”, for which the “polyreactivity (PSR sort gate)” value is given as “high polyreactivity”.

“QVQLVESGGGLVQAGGSLRLSCAASGGIFTYNAMGWYIQAPGKERELVAAITWNGGRTYYADSVKGRFTISRDTAKNTVYLQMNSLKPEDTAVYYCAARSPVKRQSRKQYYYWGQGTQVTVSS”: the “polyreactivity (PSR sort gate)” value is listed as “high polyreactivity”.

For the sequence “QVQLVESGGGLVQAGGSLRLSCAASGGIFVLNAMGWYRQAPGKERELVATITSSGGSTYYADSVKGRFTISRDNAKNTVYLQMNSLKPEDTAVYYCNADWYLWSTFAQGYGYWGQGTQVTVSS”, the “polyreactivity (PSR sort gate)” value is reported as “high polyreactivity”.

On to “QVQLVESGGGLVQAGGSLRLSCAASGGIFWAYAMGWYRQAPGKERELVAAITTLGTSTYYADSVKGRFTISRDNAKNTVYLQMNSLKPEDTGVYYCAAVDPYSYSFDYWGQGTQVTVSS”, for which the “polyreactivity (PSR sort gate)” value is on record as “high polyreactivity”.

As for “QVQLVESGGGLVQAGGSLRLSCAASGGIFWYYTRGWYRQAPGKERELVATISSGGRTYYADSVKGRFTISRDNAKNTVYLQMNSLKPEDTAVYYCAKSYRRRQGYSYWGQGTQVTVSS”, the “polyreactivity (PSR sort gate)” value is reported as “high polyreactivity”.

“QVQLVESGGGLVQAGGSLRLSCAASGGIFYHNAMGWYRQAPGKERELVAAISGRGGRTYYADSVKGRFTISRDNAKNTVYLQMNSLKPEDTAVYYCDADQYKDFDYWGQGTQVTVSS”: the “polyreactivity (PSR sort gate)” value was “low polyreactivity”.

For “QVQLVESGGGLVQAGGSLRLSCAASGGIFYPNVMGWYRQAPGKEREFVAAITSSSGSTYADSVKGRFTISRDNAKNTVYLQMNSLKPEDTAVYYCAAVENWWGIWVRYDYWGQGTQVTVSS”, the “polyreactivity (PSR sort gate)” value is listed as “low polyreactivity”.

For “QVQLVESGGGLVQAGGSLRLSCAASGGIFYSYAMGWYRQAPGKERELVAAITWIGGSTYYADSVKGRFTISRDNAKNTVYLQMNSLKPEDTAVYYCAAEILWGGYDYWGQGTQVTVSS”, the “polyreactivity (PSR sort gate)” value is listed as “low polyreactivity”.

As to “QVQLVESGGGLVQAGGSLRLSCAASGGIFYYYAMGWYRQAPGKERELVAAISWSGGSTYYADSVKGRFTISRDNAKNTVYLQMNSLKPEDPAVYYCAPYSDFHYAQLEYDYWGQGTQVTVSS”, the “polyreactivity (PSR sort gate)” value was “low polyreactivity”.

As for “QVQLVESGGGLVQAGGSLRLSCAASGGIIDWYVMGWYRQAPGKERELVAAISYNGGATYYADSVKGRFTISRDNAKNTVYLQMNSLKPEDTAVYYCAAGVTWPYRYVWYVYWGQGTQVTVSS”, the “polyreactivity (PSR sort gate)” value was “low polyreactivity”.

“QVQLVESGGGLVQAGGSLRLSCAASGGIIFYYAMGWYRQAPGKERALVAAISYSGGSTYYADSVKGRFTISRDNAKNTVYLQMNSLKPEDTAVYYCAARTHYFPWPWYVWDYDSWGQGTQVTVSS”: the “polyreactivity (PSR sort gate)” value was “low polyreactivity”.

As to “QVQLVESGGGLVQAGGSLRLSCAASGGILGVNAMGWYRQAPGKERELVAAISGRGGRTYYADSVKGRSTISRDNAKNTVYLQLNSLKPEDTAVYYCAVEFYSVARFPLWSYYWGQGTQVTVSS”, the “polyreactivity (PSR sort gate)” value is “high polyreactivity”.

Consider “QVQLVESGGGLVQAGGSLRLSCAASGGILGWSAMGWSRQAPGKERELVAAIRDSGGSTYYADSVKGRFTIARDNAKKTVYLQMNSLKPEDTAVYYCAAYYIASRSTRYYYWGQGTQVTVSS”, for which the “polyreactivity (PSR sort gate)” value is recorded as “high polyreactivity”.

“QVQLVESGGGLVQAGGSLRLSCAASGGILNYYAMGWYRQAPGKERELVAAITGIGGSTSYADSVKGRFTISRDNAKNTVYLQMNSLKPEDTAVYYCAAEATSSYYVPDYDYWGQGTQVTVSS”: the “polyreactivity (PSR sort gate)” value is recorded as “low polyreactivity”.
